Article PMC13042608, “Cross‐Platform Biosensing of Immune Receptors Using Peptide‐Functionalized Graphene” (Advanced Science, 2025)
Non-standard residues stand in square brackets, D forms with d. No end group written: not given here.

Target: T1, WKYMVm‐NH2
T1 construct: synthetic hexapeptide agonist of formyl peptide receptors; also called W‐peptide; target peptide; source: synthetic peptide (custom peptide synthesis, purity >95%)
T1 peptide: WKYMV[dM]-NH2
Assay: SPR; graphene-enhanced MP-SPR; peptide immobilised on PBA-graphene by amine coupling; nucleofected HEK293T cells (≈100 cells mL^-1) injected at 10 µL min^-1 for 20 min in C1 buffer pH 7.4; 22 °C
Details: one partner purified

SPR signal relative to the Control peptide (f-MEQQNK) surface: ~4 fold
B1: Formyl peptide receptor 2 (FPR2) on transfected HEK293T cells (receptor, human, UniProt P25090 1-351, looked up)
chain: METNFSTPLNEYEEVSYESAGYTVLRILPLVVLGVTFVLGVLGNGLVIWVAGFRMTRTVTTICYLNLALADFSFTATLPFLIVSMAMGEKWPFGWFLCKLIHIVVDINLFGSVFLIGFIALDRCICVLHPVWAQNHRTVSLAMKVIVGPWILALVLTLPVFLFLTTVTIPNGDTYCTFNFASWGGTPEERLKVAITMLTARGIIRFVIGFSLPMSIVAICYGLIAAKIHKKGMIKSSRPLRVLTAVVASFFICWFPFQLVALLGTVWLKEMLFYGKYKIIDILVNPTSSLAFFNSCLNPMLYVFVGQDFRERLIHSLPTSLERALSEDSAPTNDTAANSASPPAETELQAM
notes: formyl peptide receptor 2, human, gene amplified from human genomic DNA and cloned into pcDNA3.1(+); also called HEK FPR2; HEK‐FPR2; source: nucleofection with a GFP plasmid for biosensors), on living cells
